Article PMC11594477

Molecular target: human Flag-tagged RAC2 T108A mutant (human), P15153
Experiment: co-IP; Caki-1 cells transfected with Flag-tagged WT, S86A or T108A RAC2; interaction with NEDD4L quantified relative to WT
Conditions: remark: other sources report otherwise

- interaction, percent of the WT level (% of the WT level): 20
B1: Neural precursor cell expressed developmentally down-regulated 4-like (NEDD4L), endogenous, Q96PU5-5 1-955 (enzyme)
chain: MATGLGEPVYGLSEDEGESRILRVKVVSGIDLAKKDIFGASDPYVKLSLYVADENRELALVQTKTIKKTLNPKWNEEFYFRVNPSNHRLLFEVFDENRLTRDDFLGQVDVPLSHLPTEDPTMERPYTFKDFLLRPRSHKSRVKGFLRLKMAYMPKNGGQDEENSDQRDDMEHGWEVVDSNDSASQHQEELPPPPLPPGWEEKVDNLGRTYYVNHNNRTTQWHRPSLMDVSSESDNNIRQINQEAAHRRFRSRRHISEDLEPEPSEGGDVPEPWETISEEVNIAGDSLGLALPPPPASPGSRTSPQELSEELSRRLQITPDSNGEQFSSLIQREPSSRLRSCSVTDAVAEQGHLPPPSVAYVHTTPGLPSGWEERKDAKGRTYYVNHNNRTTTWTRPIMQLAEDGASGSATNSNNHLIEPQIRRPRSLSSPTVTLSAPLEGAKDSPVRRAVKDTLSNPQSPQPSPYNSPKPQHKVTQSFLPPGWEMRIAPNGRPFFIDHNTKTTTWEDPRLKFPVHMRSKTSLNPNDLGPLPPGWEERIHLDGRTFYIDHNSKITQWEDPRLQNPAITGPAVPYSREFKQKYDYFRKKLKKPADIPNRFEMKLHRNNIFEESYRRIMSVKRPDVLKARLWIEFESEKGLDYGGVAREWFFLLSKEMFNPYYGLFEYSATDNYTLQINPNSGLCNEDHLSYFTFIGRVAGLAVFHGKLLDGFFIRPFYKMMLGKQITLNDMESVDSEYYNSLKWILENDPTELDLMFCIDEENFGQTYQVDLKPNGSEIMVTNENKREYIDLVIQWRFVNRVQKQMNAFLEGFTELLPIDLIKIFDENELELLMCGLGDVDVNDWRQHSIYKNGYCPNHPVIQWFWKAVLLMDAEKRIRLLQFVTGTSRVPMNGFAELYGSNGPQLFTIEQWGSPEKLPRAHTCFNRLDLPPYETFEDLREKLLMAVENAQGFEGVD
